According to the RNAGym collection of RNA variant scans (doi:10.1093/molbev/msab373):

B1: Azoarcus group I ribozyme (parent)
chain: GUGCCUUGCGCCGGGAAACCACGCAAGGGAUGGUGUCAAAUUCGGCGAAACCUAAGCGCCCGCCCGGGCGUAUGGCAACGCCGAGCCAAGCUUCGGCGCCUGCGCCGAUGAAGGUGUAGAGACUAGACGGCACCCACCUAAGGCAAACGCUAUGGUGAAGGCAUAGUCCAGGGAGUGGCGAAAGUCACACAAACCGG

Variants of: B1
Test: reverse-splicing fitness (ratio to wild type); higher = more active; in vitro selection; Mg2+ level not given
Procedure, shortened: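 An in vitro group I ribozyme library with randomized positions was T7-transcribed and gel-purified. In triplicate, 10 pmol RNA in EPPS pH 7.5 was reacted with 50 pmoles of a 30-nt RNA substrate for 1 h at 37 °C across several added MgCl2 levels (1–48 mM), then stopped with EDTA. Products were reverse transcribed from a substrate-complementary primer, PCR-amplified and sequenced (HiSeq 4000). Fitness is a variant's read proportion after selection over that before, normalised to wild type.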

Question: For C82U A111U A145G C169U, which reverse-splicing fitness is on record?
Answer: 0.0114

Question: For C82U A111U A145G C169A, which reverse-splicing fitness is on record?
Answer: 0.00999

Question: Which reverse-splicing fitness does the source give for C82U A111U A145G C169G here?
Answer: 0.00856

Question: With C82U A111U A145G C150G C169A U176C as the variant, how does the reverse-splicing fitness read?
Answer: 0.0112

Question: With C82U A111U A145G C150G C169A U176G as the variant, how does the reverse-splicing fitness read?
Answer: 0.0074

Question: With C82U A111U A145G C150G C169A U176A as the variant, how does the reverse-splicing fitness read?
Answer: 0.0125

Question: For C82U A111U A145G C150U U176C, which reverse-splicing fitness is on record?
Answer: 0.12

Question: For C82U A111U A145G C150U U176A, which reverse-splicing fitness is on record?
Answer: 0.0765

Question: Which reverse-splicing fitness does the source give for C82U A111U A145G C150U U176G here?
Answer: 0.0188

Question: Which reverse-splicing fitness does the source give for C82U A111U A145G C169U U176A here?
Answer: 0.0135

Question: For C82U A111U A145G C169U U176C, which reverse-splicing fitness is on record?
Answer: 0.0145

Question: With C82U A111U A145G C169U U176G as the variant, how does the reverse-splicing fitness read?
Answer: 0.0055

Question: For C82U A111U A145G C150U C169U U176A, which reverse-splicing fitness is on record?
Answer: 0.0149

Question: For C82U A111U A145G C150U C169U U176G, which reverse-splicing fitness is on record?
Answer: 0.00571

Question: With C82U A111U A145G C150U C169U U176C as the variant, how does the reverse-splicing fitness read?
Answer: 0.013

Question: Which reverse-splicing fitness does the source give for C82U A111U A145U C150A C169U U176G here?
Answer: 0.00593

Question: With C82U A111U A145U C150A C169U U176C as the variant, how does the reverse-splicing fitness read?
Answer: 0.0118

Question: With C82U A111U A145U C150A C169U U176A as the variant, how does the reverse-splicing fitness read?
Answer: 0.0133

Question: With C82U A111U A145C C150A C169A U176C as the variant, how does the reverse-splicing fitness read?
Answer: 0.00618

Question: Which reverse-splicing fitness does the source give for C82U A111U A145C C150A C169A U176A here?
Answer: 0.00998

Question: Which reverse-splicing fitness does the source give for C82U A111U A145C C150A C169A U176G here?
Answer: 0.00585

Question: With C82U A111U A145C C150A C169U U176A as the variant, how does the reverse-splicing fitness read?
Answer: 0.0138

Question: With C82U A111U A145C C150A C169U U176G as the variant, how does the reverse-splicing fitness read?
Answer: 0.00574

Question: Which reverse-splicing fitness does the source give for C82U A111U A145C C150A C169U U176C here?
Answer: 0.00882

Question: Which reverse-splicing fitness does the source give for C82U A111U A145G C150G U176A here?
Answer: 0.0103

Question: With C82U A111U A145G C150G U176C as the variant, how does the reverse-splicing fitness read?
Answer: 0.0196

Question: For C82U A111U A145G C150G U176G, which reverse-splicing fitness is on record?
Answer: 0.00676

Question: For C82U A111U A145G, which reverse-splicing fitness is on record?
Answer: 0.332

Question: With C82U A111U A145U as the variant, how does the reverse-splicing fitness read?
Answer: 0.329

Question: Which reverse-splicing fitness does the source give for C82U A111U A145C here?
Answer: 0.295

Question: With C82U A111U A145G C169A U176A as the variant, how does the reverse-splicing fitness read?
Answer: 0.0191

Question: Which reverse-splicing fitness does the source give for C82U A111U A145G C169A U176C here?
Answer: 0.0257

Question: For C82U A111U A145G C169A U176G, which reverse-splicing fitness is on record?
Answer: 0.00582

Question: With C82U A111U A145G C169G U176G as the variant, how does the reverse-splicing fitness read?
Answer: 0.00528

Question: Which reverse-splicing fitness does the source give for C82U A111U A145G C169G U176A here?
Answer: 0.0207

Question: For C82U A111U A145G C169G U176C, which reverse-splicing fitness is on record?
Answer: 0.027

Question: With C82U A111U A145C C169G U176C as the variant, how does the reverse-splicing fitness read?
Answer: 0.0126

Question: Which reverse-splicing fitness does the source give for C82U A111U A145C C169G U176G here?
Answer: 0.00539

Question: For C82U A111U A145C C169G U176A, which reverse-splicing fitness is on record?
Answer: 0.0234

Question: With C82U A111U A145C C150G C169G U176C as the variant, how does the reverse-splicing fitness read?
Answer: 0.00693

Question: For C82U A111U A145C C150G C169G U176G, which reverse-splicing fitness is on record?
Answer: 0.00581

Question: Which reverse-splicing fitness does the source give for C82U A111U A145C C150G C169G U176A here?
Answer: 0.00901

Question: For C82U A111U A145G C150U C169G U176C, which reverse-splicing fitness is on record?
Answer: 0.0174

Question: For C82U A111U A145G C150U C169G U176G, which reverse-splicing fitness is on record?
Answer: 0.00598

Question: With C82U A111U A145G C150U C169G U176A as the variant, how does the reverse-splicing fitness read?
Answer: 0.0133

Question: With C82U A111U A145U C150G C169A U176G as the variant, how does the reverse-splicing fitness read?
Answer: 0.00684

Question: Which reverse-splicing fitness does the source give for C82U A111U A145U C150G C169A U176A here?
Answer: 0.0112

Question: For C82U A111U A145U C150G C169A U176C, which reverse-splicing fitness is on record?
Answer: 0.00962

Question: Which reverse-splicing fitness does the source give for C82U A111U A145C C150A here?
Answer: 0.0151

Question: For C82U A111U A145C C150G, which reverse-splicing fitness is on record?
Answer: 0.0299

Question: Which reverse-splicing fitness does the source give for C82U A111U A145C C150U here?
Answer: 0.0602

Question: With C82U A111U A145U C150A C169A U176A as the variant, how does the reverse-splicing fitness read?
Answer: 0.0123

Question: Which reverse-splicing fitness does the source give for C82U A111U A145U C150A C169A U176G here?
Answer: 0.00735

Question: With C82U A111U A145U C150A C169A U176C as the variant, how does the reverse-splicing fitness read?
Answer: 0.00929

Question: Which reverse-splicing fitness does the source give for C82U A111U A145C C169U U176A here?
Answer: 0.0134

Question: Which reverse-splicing fitness does the source give for C82U A111U A145C C169U U176G here?
Answer: 0.00463

Question: For C82U A111U A145C C169U U176C, which reverse-splicing fitness is on record?
Answer: 0.0103

Question: With C82U A111U A145C C150A C169A as the variant, how does the reverse-splicing fitness read?
Answer: 0.00809

Question: With C82U A111U A145C C150A C169G as the variant, how does the reverse-splicing fitness read?
Answer: 0.00741

Question: Which reverse-splicing fitness does the source give for C82U A111U A145C C150A C169U here?
Answer: 0.00873

Question: For C82U A111U A145C C169A, which reverse-splicing fitness is on record?
Answer: 0.00671

Question: With C82U A111U A145C C169G as the variant, how does the reverse-splicing fitness read?
Answer: 0.0091

Question: Which reverse-splicing fitness does the source give for C82U A111U A145C C169U here?
Answer: 0.0102

Question: For C82U A111U A145G C150G C169G U176C, which reverse-splicing fitness is on record?
Answer: 0.0116

Question: For C82U A111U A145G C150G C169G U176A, which reverse-splicing fitness is on record?
Answer: 0.00984

Question: Which reverse-splicing fitness does the source give for C82U A111U A145G C150G C169G U176G here?
Answer: 0.00579

Question: For C82U A111U A145C C150G C169A U176C, which reverse-splicing fitness is on record?
Answer: 0.0066

Question: Which reverse-splicing fitness does the source give for C82U A111U A145C C150G C169A U176A here?
Answer: 0.00853

Question: Which reverse-splicing fitness does the source give for C82U A111U A145C C150G C169A U176G here?
Answer: 0.006

Question: Which reverse-splicing fitness does the source give for C82U A111U A145G C150A U176A here?
Answer: 0.0215

Question: With C82U A111U A145G C150A U176C as the variant, how does the reverse-splicing fitness read?
Answer: 0.0426

Question: Which reverse-splicing fitness does the source give for C82U A111U A145G C150A U176G here?
Answer: 0.00953

Question: For C82U A111U A145C C150A U176A, which reverse-splicing fitness is on record?
Answer: 0.0116

Question: With C82U A111U A145C C150A U176C as the variant, how does the reverse-splicing fitness read?
Answer: 0.013

Question: For C82U A111U A145C C150A U176G, which reverse-splicing fitness is on record?
Answer: 0.00625

Question: Which reverse-splicing fitness does the source give for C82U A111U A120U C169G U176C here?
Answer: 0.00303

Question: For C82U A111U A120U C169G U176G, which reverse-splicing fitness is on record?
Answer: 0.00193

Question: With C82U A111U A120U C169G U176A as the variant, how does the reverse-splicing fitness read?
Answer: 0.00316

Question: With C82U A111U A145C C150U C169U U176A as the variant, how does the reverse-splicing fitness read?
Answer: 0.0134

Question: With C82U A111U A145C C150U C169U U176G as the variant, how does the reverse-splicing fitness read?
Answer: 0.00525

Question: With C82U A111U A145C C150U C169U U176C as the variant, how does the reverse-splicing fitness read?
Answer: 0.0076

Question: For C82U A111U A145G C150U C169A, which reverse-splicing fitness is on record?
Answer: 0.0102

Question: Which reverse-splicing fitness does the source give for C82U A111U A145G C150U C169U here?
Answer: 0.0113

Question: With C82U A111U A145G C150U C169G as the variant, how does the reverse-splicing fitness read?
Answer: 0.00883
